Where “and” joins values, the source holds several entries; their conditions need not be identical. Equal entries are not always repeated. Some results are limits rather than exact numbers.

Data set [1] is described as follows: Interleukin surface binding to nanoP3 (fluorescence of Cy5 label in leftover washes). It counts as physicochemical. The note with it: ultra-pure water pH 6.5, room temperature; for maximum binding efficiency of nanoP3 to interleukin in solution: Cy5-tagged interleukin; for loading capacity, further increased loading: at lower binding efficiency. The protocol: Carrier free recombinant rat IL-4 and IL-10 (R&D systems, USA) were dissolved in phosphate buffered saline (PBS) at a stock concentration of 100 ng/μl. To establish binding kinetics, each interleukin was tagged with a Lightning-link Cy5 antibody label (Novus Biologicals, USA). For every 1×10^9 nanoP3 (200 nm diameter) in ultrapure water (Thermofisher, USA), either 1.42 μg of IL-4 or 1.32 μg of IL-10 was added. Additional water was added to reach a total reaction volume of 1 ml and left to incubate for a 1 h at room temperature. Binding kinetics were performed on a Clariostar monochromator microplate reader (BMG Labtech, Germany) using the leftover washes following 1 h incubations.
The binding efficiency of nanoP3 to IL-4 in solution was maximum at 99%, corresponding to a loading capacity of 0.5±0.01 μg/10^9 particles. […] The maximum binding efficiency of nanoP3 to IL-10 was 99.9%, representing a total mass loading capacity of 0.5±0.02 μg/10^9 particles. Further loading of IL-10 onto nanoP3 was observed up to 0.80±0.02 μg/10^9 particles corresponding to a binding efficiency of 40%. All experiments were performed in ultra-pure water (pH=6.5) at room temperature. The incubation time was 30 minutes.

The subject of data set [2] is rat carotid model of vessel injury. The experiment in a line: Rat carotid injury and nanoP3 delivery model (neointima, endothelium, M2 macrophages). It counts as in vivo. The note with it: for repair of the damaged endothelium (immunostaining, von Willebrand factor): 14 days after injury; for vessel re-endothelialisation / healing (von Willebrand factor staining): 200 nm NP3, FIG. 8; for vascular occlusion (neointima formation percentage of cross-sectional lumen area): denuded injury roughly 60%. The protocol: (§1) Study approval was obtained from the Sydney Local Health District Animal Welfare Committee (protocol number 2017/006). Experiments were conducted in accordance with the Australian Code of Practice for the Care and Use of Animals for Scientific Purpose. Rats (Sprague Dawley, male, 7 weeks) were purchased from Laboratory Animal Service (NSW, Australia). Rats were given a single intramuscular injection of ketamine (75 mg/kg) and medetomidine (0.5 mg/kg) to induce anaesthesia. The common carotid artery was isolated and double ligations were spaced roughly 1 cm apart. A small incision at the distal end was made, through which microintraocular forceps (World Precision Instruments, USA) were inserted, expanded to their full width and rotated 360 degrees to injured the entire luminal surface area of the vessel. This was repeated 5 times before withdrawing the forceps, and inserting a 22G catheter into the same incision. Through the catheter, IL-4 or IL-10 bound nanoP3 solutions were injected at a concentration of 2×10^8 nanoP3 in a total volume of roughly 80 μl of RPMI media. The nanoP3 solutions were allowed to incubate for 2 minutes and then withdrawn completely from the vessel. The incision was sutured closed using a 9-0 nylon suture, and both ligations were undone to re-establish blood flow. The isolated vessel segments were then explanted 14 days later for pathological evaluation.
After 14 days in vivo, vessel explants were fixed in 4% PFA overnight and subjected to ethanol dehydrations prior to paraffin embedding. Embedded vessel segments were then sectioned in 5 μm thick slices in the longitudinal direction. M2 macrophage and luminal endothelium staining was conducted using anti-CD206 (Abcam, USA) and anti-VonWillebrand Factor (Sigma, USA) antibodies. Fluorescent imaging was conducted by using Alexa-fluor 594 secondary antibodies. Staining of neointima formation was conducted using hematoxylin & eosin (H&E) staining. Normalised hyperplasia was calculated as the total area of hyperplasia divided the area of the original vessel lumen.
Using a rat carotid model of vessel injury, the efficacy of NP3+IL-10, NP3+Sirolimus or NP3+Sulindac to treat cardiovascular pathology was determined in vivo. Carrier -free recombinant rat IL-10 (1.34 μg/10^9 nanoP3; R&D systems, USA), Sirolimus (2.50 μg/10^9 nanoP3; rapamycin, Sigma-Merck, USA), Sulindac (3.05 μg/10^9nanoP3; Sigma-Merck, USA), or a Cy7 fluorescent tag (5.03 μg/10^9 nanoP3; CF750 Antibody Label, Sigma-Merck, USA) were diluted in sterile water and conjugated to 2×10^9 nanoP3.
The rats were subjected to vessel injury as described in Example 3 except that through the catheter, IL-10, Sirolimus or Sulindac bound nanoP3 solutions were injected at a concentration of 2×10^8 nanoP3 (IL-10, 0.268 μg; Sirolimus, 0.5 μg; Sulindac 0.61 μg; Cy7, 1.01 μg), in a total volume of roughly 80 μl of RPMI media.

Data set [3] deals with rabbit model of iliac arterial injury. The experiment in a line: Rabbit iliac injury and nanoP3 delivery model. The settings on record: 200 nm NP3, over seven days. In kind it is in vivo. The protocol:
Study approval was obtained from the University of Sydney Animal Ethics Committee (AEC) protocol 2019-1653. Experiments were conducted in accordance with the Australian Code of Practice for the Care and Use of Animals for Scientific Purpose. An incision (˜1cm length) was made in the middle of the inguinal skin and the right femoral artery exposed after the blunt dissection of the muscle layers. The artery was ligated on the distal end and above the ligation, a small incision made to allow a 5F sheath (Abbott, TREK Coronary Dilatation Catheter, 3.25 mm) to be inserted. The sheath was held in place with sutures (3-0, silk). A 0.014 inch guide wire was inserted through the sheath, retrograde into the abdominal aorta. A 3.25 mm angioplasty balloon catheter was then inserted over the guide wire and advanced into the aorta. The location of NP3 delivery and the surrounding vasculature was determined by intravenous injection of contrast fluid ISOVUE 370 or OMNIPAQUE (75.5 g/100 ml), 25%-50% (v/v) contrast/saline prior to angiography.
Denudation of the iliac artery was performed by inflating the balloon at the bifurcation of the abdominal aorta to 3.1 mm diameter and withdrawn to the femoral artery slowly, 3 times (1 min per denudation). Through the main incision, the same balloon was re-inserted into the injured iliac to the bifurcation and inflated to 6-8 atm to occlude proximal blood flow. Immediately after blood flow has been occluded, a IL-10 nanoP3 solution (3×10^8 total 2 ml) was delivered through the sheath, inflating the artery, and allowed to incubate for 2 minutes before aspirating remaining solution back through the sheath. The sheath was removed, the femoral artery permanently ligated by 3-0 silk suture, followed by removal of the sheath. The exposed area was closed by 3-0 silk suture with individual stiches and double layer sutures.

Data set [4] concerns Raw 246.7 mouse macrophage cells. The experiment in a line: M2 macrophage polarisation in vitro (SEM, confocal arginase-1 staining). The settings on record: 1×10^5 nanoP3/well, 24 hours; for expression of arginase-1 (ARG-1), confocal immunostaining: vs control and NP3 only; for M2 activation of macrophages (SEM spreading and surface roughness): vs untreated and NP3 only. In kind it is cell-based. The protocol: The inventors sought to investigate the effect of NP3+IL-4 on macrophage polarisation in vitro. Raw 246.7 mouse macrophage cells (ATCC, USA) were cultured at 5×10^3 cells/well in a 96 well plate. IL-4 bound nanoP3 was added into macrophage cultures at a concentration of 1×10^5 nanoP3/well. After 24 hours, macrophages were fixed in 4% paraformaldehyde prior to scanning electron microscopy (SEM) and confocal imaging. Confocal staining was performed using an Actin cytoskeletal stain (Abcam, USA) and an anti-arginase-1 antibody (Abcam, USA).
Raw 246.7 mouse macrophage cells (ATCC, USA) were cultured at 5×10^3 cells/well in a 96 well plate. IL-10 (1.34 μg/10^9 nanoP3) and Sulindac (3.05μg/10^9nanoP3) were bound to nanoP3 as described in Example 4.
NP3+IL-10 or NP3+Sulindac was added into macrophage cultures at a concentration of 1 x 10^5 nanoP3/well. After 24 hours, macrophages were fixed in 4% paraformaldehyde prior to scanning electron microscopy (SEM) and confocal imaging. Confocal staining was performed using an Actin cytoskeletal stain (Abcam, USA) and an anti-arginase-1 antibody (Abcam, USA).

Data set [5] is described as follows: Tracking of IL-4 retention in the isolated vessel (Cy5 tag), rat carotid injury model. In kind it is in vivo. The note with it: for IL-4 retention in the vessel after restoration of blood flow: 2 minutes incubation in isolated carotid. The protocol: A) Procedural workflow of vessel injury: 1. Microintraocular forceps are inserted into ligated/isolated carotid rat segments. 2. Forceps are expanded and rotated 360° to mimic balloon injury overexpansion injury/denudation. 3. Forceps are removed, and through the same incision a small gauge catheter is inserted. 4. NP3+IL-4 solutions are delivered through the catheter and are allowed to incubate in the isolated vessel for 2 minutes. 5. The incision is sutured, and blood flow is restored.
as §1

B1: IL-10: carrier free recombinant rat IL-10 (R&D systems), anti-inflammatory cytokine (protein, UniProt P29456 19-178, looked up)
Interleukin-10: SKGHSIRGDNNCTHFPVSQTHMLRELRAAFSQVKTFFQKKDQLDNILLTDSLLQDFKGYLGCQALSEMIKFYLVEVMPQAENHGPEIKEHLNSLGEKLKTLWIQLRRCHRFLPCENKSKAVEQVKNDFNKLQDKGVYKAMNEFDIFINCIEAYVTLKMKN
In the case of B1, in data set [1], the “binding efficiency at further increased loading” value worked out at 40%; the “loading capacity at maximum binding efficiency” value came to 0.5±0.02 μg/10^9 particles; the “maximum binding efficiency of nanoP3 to interleukin in solution” value is 99.9% and 100%; the “loading capacity, further increased loading” value was 0.80±0.02 μg/10^9 particles. Besides, the “repair of the damaged endothelium (immunostaining, von Willebrand factor)” value (“repair of the damaged endothelium” below) in data set [2] is reported as “absent”. Besides, the “effect on vascular occlusion” value in data set [2] (two weeks) is reported as “no significant effects”.

B2: NP3+IL-10: recombinant rat IL-10 conjugated to 200 nm plasma polymer nanoparticles (nanoP3) (conjugate, UniProt P29456 19-178, looked up)
Interleukin-10: B1 Interleukin-10
modifications: conjugated to 200 nm plasma polymer nanoparticles
As to B2, the “incidence of thrombosis (CD31 staining)” value in data set [3] is given as “significantly reduced”. Moreover, in data set [3] (vs untreated controls), the “neointimal hyperplasia / occlusion (H&E staining)” value (“neointimal hyperplasia / occlusion” for short) is reported as “reduced hyperplasia” and the “vessel inflammation, infiltration of pro-inflammatory macrophages (CD68 staining)” value is listed as “reduces the infiltration of pro-inflammatory macrophages”. The “neointimal hyperplasia / occlusion” value in data set [3] (vs untreated controls, listed as IL-10+NP3) is reported as “reduced hyperplasia”. Besides, the “neointimal hyperplasia / occlusion” value in data set [3] (vs untreated controls, listed as NP3+IL10) is recorded as “reduced occlusion”. Besides, in data set [4], the “expression of arginase-1 (ARG-1), confocal immunostaining” value was “significantly upregulated”; the “M2 activation of macrophages (SEM spreading and surface roughness)” value is “causes M2 activation”. In addition, in data set [2], the “vessel re-endothelialisation / healing (von Willebrand factor staining)” value is given as “stimulate healing” and the “repair of the damaged endothelium” value is listed as “restore full endothelium integrity”. In addition, in data set [2] (listed as NP3 delivered IL-10), the “vessel re-endothelialisation / healing (von Willebrand factor staining)” value is “stimulates vessel healing”. Also, the “vessel inflammation/macrophage polarisation (CD206 co-staining with CD68)” value in data set [2] (200 nm NP3, FIG. 9) is on record as “promoting M2 macrophage polarisation”. For the same molecule, the “neointimal hyperplasia (H&E staining)” value in data set [2] (200 nm NP3, compared to freely delivered agents, FIG. 7) is recorded as “inhibition of neointimal hyperplasia”. Besides, the “presence of M2 macrophages in treated carotid segments (immunostaining, CD206)” value in data set [2] (14 days, compared to denuded, NP3+IL-4 and free IL-10) was “significant increase”. Also, in data set [2] (two weeks), the “vascular occlusion (neointima formation percentage of cross-sectional lumen area)” value is given as roughly 20%.

B3: IL-4: carrier free recombinant rat IL-4 (R&D systems), anti-inflammatory cytokine (protein, UniProt P20096 25-147, looked up)
Interleukin-4: CNDSPLREIINTLNQVTEKGTPCTEMFVPDVLTATRNTTENELICRASRVLRKFYFPRDVPPCLKNKSGVLGELRKLCRGVSGLNSLRSCTVNESTLTTLKDFLESLKSILRGKYLQSCTSMS
In the case of B3, in data set [1], the “binding efficiency at further increased loading” value turned out to be 53.1%; the “loading capacity at maximum binding efficiency” value is 0.5±0.01 μg/10^9 particles; the “maximum binding efficiency of nanoP3 to interleukin in solution” value is 99% and 100%; the “loading capacity, further increased loading” value was 1.1±0.02 μg/10^9 particles. Moreover, in data set [5], the “IL-4 retention in the vessel after restoration of blood flow” value was “immediately washed away”.

B4: NP3+IL-4: recombinant rat IL-4 conjugated to plasma polymer nanoparticles (nanoP3, 200 nm) (conjugate, UniProt P20096 25-147, looked up)
Interleukin-4: B3 Interleukin-4
modifications: conjugated to 200 nm plasma polymer nanoparticles
For B4, in data set [4], the “expression of arginase-1 (ARG-1), confocal immunostaining” value is recorded as “significantly upregulated”; the “M2 activation of macrophages (SEM spreading and surface roughness)” value is “increases spreading (top row) and surface roughness”. Besides, the “M2 activation of macrophages (SEM spreading and surface roughness)” value in data set [4] (listed as nanoP3-IL4) is “causes M2 activation”. For the same molecule, in data set [5], the “persistence of IL-4 at substantial levels in the vessel” value is listed as no less than 5 days and the “IL-4 retention in the vessel after restoration of blood flow” value is “significantly retained”. Further, the “repair of the damaged endothelium” value in data set [2] is recorded as “restore full endothelium integrity”. Moreover, the “vascular occlusion (neointima formation percentage of cross-sectional lumen area)” value in data set [2] (two weeks) is “approximately 35%”.

The record behind these values is US20220096655A1, “PLASMA POLYMER NANOPARTICLES CARRYING AGENTS” (THE HEART RESEARCH INSTITUTE LTD, priority 2019, published 2022).
